We go through 3 variants from publication PMC9221696.

To fix the notation:
B1: wild-type Fas receptor (Fas/CD95) tagged with mCerulean3 or mVenus [human] / Cerulean3-tagged FADD containing only the death domain (FADD DD) [human] (parent)
chain 1: LCAAFNVICDNVGKDWRRLARQLKVSDTKIDSIEDRYPRNLTERVRESLRIWKNTEKENATVAHLVGALRSCQMNLVADLVQEVQ
chain 2: QVTDINSKGLELRKTVTTVETQNLEGLHHDGQFCHKPCPPGERKARDCTVNGDEPDCVPCQEGKEYTDKAHFSSKCRRCRLCDEGHGLEVEINCTRTQNTKCRCKPNFFCNSTVCEHCDPCTKCEHGIIKECTLTSNTKCKEEGSRSNLGWLCLLLLPIPLIVWVKRKEVQKTCRKHRKENQGSHESPTLNPETVAINLSDVDLSKYITTIAGVMTLSQVKGFVRKNGVNEAKIDEIKNDNVQDTAEQKVQLLRNWHQLHGKKEAYDTLIKDLKKANLCTLAEKIQTIILKDITSDSENSNFRNEIQSLV

Variants of B1 are the subject of the experiment. The experiment is described as follows: flow-cytometric FRET between Fas and FADD DD in live cells. The following applies: with Cerulean3-tagged FADD containing only the death domain (FADD DD) [human], RapoC2 (Fas-deficient Jurkat) cells, read off a plot.

Turning to chain 2 QVTDINSKGLELRKTVTTVETQNLEGLHHDGQFCHKPCPPGERKARDCTVNGDEPDCVPCQEGKEYTDKAHFSSKCRRCRLCDEGHGLEVEINCTRTQNTKCRCKPNFFCNSTVCEHCDPCTKCEHGIIKECTLTSNTKCKEEGSRSNLGWLCLLLLPIPLIVWVKRKEVQKTCRKHRKENQGSHESPTLNPETVAINLSDVDLSKYITTIAGVMTLSQVKGFVRKNGVNEAKIDKIKNDNVQDTAEQKVQLLRNWHQLHGKKEAYDTLIKDLKKANLCTLAEKIQTIILKDITSDSENSNFRNEIQSLV [chain 2 E236K], the screen value runs as follows: (FasL-LZ 5 min, parent: 1.3) 1.1; (FasL-LZ 15 min, parent: 1.5) 1.1; (FasL-LZ 30 min, parent: 1.7) 1.1; (FasL-LZ 60 min, parent: 1.9) 1.1; (FasL-LZ 120 min, parent: 1.9) 1.1.

Regarding chain 2 QVTDINSKGLELRKTVTTVETQNLEGLHHDGQFCHKPCPPGERKARDCTVNGDEPDCVPCQEGKEYTDKAHFSSKCRRCRLCDEGHGLEVEINCTRTQNTKCRCKPNFFCNSTVCEHCDPCTKCEHGIIKECTLTSNTKCKEEGSRSNLGWLCLLLLPIPLIVWVKRKEVQKTVRKHRKENQGSHESPTLNPETVAINLSDVDLSKYITTIAGVMTLSQVKGFVRKNGVNEAKIDEIKNDNVQDTAEQKVQLLRNWHQLHGKKEAYDTLIKDLKKANLCTLAEKIQTIILKDITSDSENSNFRNEIQSLV [chain 2 C174V], the screen value was 1.4 (FasL-LZ 5 min, parent: 1.3); 1.6 (FasL-LZ 15 min, parent: 1.5); 1.8 (FasL-LZ 30 min, parent: 1.7); 1.9 (FasL-LZ 60 min, parent: 1.9); 2 (FasL-LZ 120 min, parent: 1.9).

chain 2 QVTDINSKGLELRKTVTTVETQNLEGLHHDGQFCHKPCPPGERKARDCTVNGDEPDCVPCQEGKEYTDKAHFSSKCRRCRLCDEGHGLEVEINCTRTQNTKCRCKPNFFCNSTVCEHCDPCTKCEHGIIKECTLTSNTKCKEEGSRSNLGWLCLLLLPIPLIVWVKRKEVQKTCRKHRKENQGSHESPTLNPETVAINLSDVDLSKYITTIAGVMTLSQVKGFVRKNGVNEDKIDEIKNDNVQDTAEQKVQLLRNWHQLHGKKEAYDTLIKDLKKANLCTLAEKIQTIILKDITSDSENSNFRNEIQSLV [chain 2 A232D]: the screen value runs as follows: (FasL-LZ 5 min, parent: 1.3) 1.1; (FasL-LZ 15 min, parent: 1.5) 1.1; (FasL-LZ 30 min, parent: 1.7) 1.1; (FasL-LZ 60 min, parent: 1.9) 1.1; (FasL-LZ 120 min, parent: 1.9) 1.1.
